Reference: US20140087995A1 (published 2014)
Numbered stars: 1 amine (or outer) side, 2 acyl side, 3 side chain; on linkers, the order of the positions; unused ones are H or OH. Bridge positions count the residues as written; N and C are the ends. Side chains are listed from the residue outwards. Ends that are not written are not given here. * marks the point of attachment. C20 diacid = O=C(O)CCCCCCCCCCCCCCCCCCC(=O)*; C16 diacid = O=C(O)CCCCCCCCCCCCCCC(=O)*; γGlu = O=C(O)[C@H](CCC(=O)[*:2])N[*:1]; AEEA = NCCOCCOCC(=O)O

T1: human calcitonin receptor (human, UniProt P30988 25-474)
T1 construct: whole, on cells; Used as cell membranes; also called hCTR; hCT
T1 sequence (looked up): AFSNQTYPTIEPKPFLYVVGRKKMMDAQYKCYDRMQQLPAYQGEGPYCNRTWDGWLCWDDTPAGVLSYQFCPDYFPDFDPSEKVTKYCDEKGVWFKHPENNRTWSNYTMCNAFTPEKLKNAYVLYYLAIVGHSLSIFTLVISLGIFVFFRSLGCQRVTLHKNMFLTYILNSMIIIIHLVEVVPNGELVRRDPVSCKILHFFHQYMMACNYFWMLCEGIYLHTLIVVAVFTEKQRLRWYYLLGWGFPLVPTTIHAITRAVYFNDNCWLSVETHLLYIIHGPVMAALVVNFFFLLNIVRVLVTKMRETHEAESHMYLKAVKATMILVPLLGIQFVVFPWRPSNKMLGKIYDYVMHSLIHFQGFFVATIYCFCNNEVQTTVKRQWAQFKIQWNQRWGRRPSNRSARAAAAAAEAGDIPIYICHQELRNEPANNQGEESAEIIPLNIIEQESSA


Legend:
[1] = biological target: T1, human calcitonin receptor; assay: ratio of hCTR IC50 to hAmylin-R IC50 (reference: human amylin receptor)
Procedure, shortened: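 Competition binding by SPA uses membrane preparations (35 ng/μL final) in pH 7.4 Hepes buffer with 1 mM CaCl2 and 5 mM MgCl₂. Incubation lasts 120 min at 25° C, and IC₅₀ comes from one-site fitting.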

[2] = biological target: T1, human calcitonin receptor; assay: SPA competition on BHK cell membranes, 125I-calcitonin as radioligand (Assay VII)
Procedure, shortened: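 BHK hCTR membranes 35 ng/μL + SPA beads 0.05 mg/well; buffer 50 mM Hepes pH 7.4, 1 mM CaCl2, 5 mM MgCl₂, 0.1% OA, 0.02% Tween20. 120 min, 25° C., shaking. Scintillation count; IC50 by one-site binding competition.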

Row | Binder | Ratio hCT/hAmylin binding [1] | IC50 [2] [nM]
1 | {C20 diacid-γGlu}-GRCNTATCATQRLAAFLRHSSPNFGAIPSSTNVGHNTY-NH2 (disulfide 3-8; SMILES CC[C@H](C)[C@H](NC(=O)[C@H](C)NC(=O)CNC(=O)[C@H](Cc1ccccc1)NC(=O)[C@H](CC(N)=O)NC(=O)[C@@H]1CCCN1C(=O)[C@H](CO)NC(=O)[C@H](CO)NC(=O)[C@H](Cc1c[nH]cn1)NC(=O)[C@H](CCCNC(=N)N)NC(=O)[C@H](CC(C)C)NC(=O)[C@H](Cc1ccccc1)NC(=O)[C@H](C)NC(=O)[C@H](C)NC(=O)[C@H](CC(C)C)NC(=O)[C@H](CCCNC(=N)N)NC(=O)[C@H](CCC(N)=O)NC(=O)[C@@H](NC(=O)[C@H](C)NC(=O)[C@@H]1CSSC[C@H](NC(=O)[C@H](CCCNC(=N)N)NC(=O)CNC(=O)CC[C@H](NC(=O)CCCCCCCCCCCCCCCCCCC(=O)O)C(=O)O)C(=O)N[C@@H](CC(N)=O)C(=O)N[C@@H]([C@@H](C)O)C(=O)N[C@@H](C)C(=O)N[C@@H]([C@@H](C)O)C(=O)N1)[C@@H](C)O)C(=O)N1CCC[C@H]1C(=O)N[C@@H](CO)C(=O)N[C@@H](CO)C(=O)N[C@H](C(=O)N[C@@H](CC(N)=O)C(=O)N[C@H](C(=O)NCC(=O)N[C@@H](Cc1c[nH]cn1)C(=O)N[C@@H](CC(N)=O)C(=O)N[C@H](C(=O)N[C@@H](Cc1ccc(O)cc1)C(N)=O)[C@@H](C)O)C(C)C)[C@@H](C)O, 38 residues) | 68.6 | 29.2
2 | {C20 diacid-γGlu}-GRCNTATCATQRLAHFLRHSSPNFGAIPSSTNVGSNTY-NH2 (disulfide 3-8; SMILES CC[C@H](C)[C@H](NC(=O)[C@H](C)NC(=O)CNC(=O)[C@H](Cc1ccccc1)NC(=O)[C@H](CC(N)=O)NC(=O)[C@@H]1CCCN1C(=O)[C@H](CO)NC(=O)[C@H](CO)NC(=O)[C@H](Cc1c[nH]cn1)NC(=O)[C@H](CCCNC(=N)N)NC(=O)[C@H](CC(C)C)NC(=O)[C@H](Cc1ccccc1)NC(=O)[C@H](Cc1c[nH]cn1)NC(=O)[C@H](C)NC(=O)[C@H](CC(C)C)NC(=O)[C@H](CCCNC(=N)N)NC(=O)[C@H](CCC(N)=O)NC(=O)[C@@H](NC(=O)[C@H](C)NC(=O)[C@@H]1CSSC[C@H](NC(=O)[C@H](CCCNC(=N)N)NC(=O)CNC(=O)CC[C@H](NC(=O)CCCCCCCCCCCCCCCCCCC(=O)O)C(=O)O)C(=O)N[C@@H](CC(N)=O)C(=O)N[C@@H]([C@@H](C)O)C(=O)N[C@@H](C)C(=O)N[C@@H]([C@@H](C)O)C(=O)N1)[C@@H](C)O)C(=O)N1CCC[C@H]1C(=O)N[C@@H](CO)C(=O)N[C@@H](CO)C(=O)N[C@H](C(=O)N[C@@H](CC(N)=O)C(=O)N[C@H](C(=O)NCC(=O)N[C@@H](CO)C(=O)N[C@@H](CC(N)=O)C(=O)N[C@H](C(=O)N[C@@H](Cc1ccc(O)cc1)C(N)=O)[C@@H](C)O)C(C)C)[C@@H](C)O, 38 residues; also called compound 99) | 100 | 35
3 | {C20 diacid-γGlu}-GRCNTATCATQRLAAFLRHSSPNFGAIPSSTNVGPNTY-NH2 (disulfide 3-8, 38 residues) | 26.5 | 3
4 | K([γGlu-C16 diacid])CNTATCATQRLANFLRHSSPNFGAIPSSTNVGHNTY-NH2 (disulfide 2-7; N-terminus assumed; SMILES CC[C@H](C)[C@H](NC(=O)[C@H](C)NC(=O)CNC(=O)[C@H](Cc1ccccc1)NC(=O)[C@H](CC(N)=O)NC(=O)[C@@H]1CCCN1C(=O)[C@H](CO)NC(=O)[C@H](CO)NC(=O)[C@H](Cc1c[nH]cn1)NC(=O)[C@H](CCCNC(=N)N)NC(=O)[C@H](CC(C)C)NC(=O)[C@H](Cc1ccccc1)NC(=O)[C@H](CC(N)=O)NC(=O)[C@H](C)NC(=O)[C@H](CC(C)C)NC(=O)[C@H](CCCNC(=N)N)NC(=O)[C@H](CCC(N)=O)NC(=O)[C@@H](NC(=O)[C@H](C)NC(=O)[C@@H]1CSSC[C@H](NC(=O)[C@@H](N)CCCCNC(=O)CC[C@H](NC(=O)CCCCCCCCCCCCCCC(=O)O)C(=O)O)C(=O)N[C@@H](CC(N)=O)C(=O)N[C@@H]([C@@H](C)O)C(=O)N[C@@H](C)C(=O)N[C@@H]([C@@H](C)O)C(=O)N1)[C@@H](C)O)C(=O)N1CCC[C@H]1C(=O)N[C@@H](CO)C(=O)N[C@@H](CO)C(=O)N[C@H](C(=O)N[C@@H](CC(N)=O)C(=O)N[C@H](C(=O)NCC(=O)N[C@@H](Cc1c[nH]cn1)C(=O)N[C@@H](CC(N)=O)C(=O)N[C@H](C(=O)N[C@@H](Cc1ccc(O)cc1)C(N)=O)[C@@H](C)O)C(C)C)[C@@H](C)O) [N^ε1-[(4S)-4-carboxy-4-(15-carboxypentadecanoylamino)butanoyl]-[Arg17,Pro21,Pro27,His34]-h-amylin] | 18.5 | 10.8

Results, then the binder that gave them:

Row | Ratio hCT/hAmylin binding [1] | IC50 [2] [nM] | Binder
5 | 36.2 | 7.87 | {C20 diacid-γGlu}-GRCNTATCATQRLAHFLRHSSPNFGAIPSSTNVGPNTY-NH2 (disulfide 3-8; SMILES CC[C@H](C)[C@H](NC(=O)[C@H](C)NC(=O)CNC(=O)[C@H](Cc1ccccc1)NC(=O)[C@H](CC(N)=O)NC(=O)[C@@H]1CCCN1C(=O)[C@H](CO)NC(=O)[C@H](CO)NC(=O)[C@H](Cc1c[nH]cn1)NC(=O)[C@H](CCCNC(=N)N)NC(=O)[C@H](CC(C)C)NC(=O)[C@H](Cc1ccccc1)NC(=O)[C@H](Cc1c[nH]cn1)NC(=O)[C@H](C)NC(=O)[C@H](CC(C)C)NC(=O)[C@H](CCCNC(=N)N)NC(=O)[C@H](CCC(N)=O)NC(=O)[C@@H](NC(=O)[C@H](C)NC(=O)[C@@H]1CSSC[C@H](NC(=O)[C@H](CCCNC(=N)N)NC(=O)CNC(=O)CC[C@H](NC(=O)CCCCCCCCCCCCCCCCCCC(=O)O)C(=O)O)C(=O)N[C@@H](CC(N)=O)C(=O)N[C@@H]([C@@H](C)O)C(=O)N[C@@H](C)C(=O)N[C@@H]([C@@H](C)O)C(=O)N1)[C@@H](C)O)C(=O)N1CCC[C@H]1C(=O)N[C@@H](CO)C(=O)N[C@@H](CO)C(=O)N[C@H](C(=O)N[C@@H](CC(N)=O)C(=O)N[C@H](C(=O)NCC(=O)N1CCC[C@H]1C(=O)N[C@@H](CC(N)=O)C(=O)N[C@H](C(=O)N[C@@H](Cc1ccc(O)cc1)C(N)=O)[C@@H](C)O)C(C)C)[C@@H](C)O, 38 residues)
6 | 101 | 12 | K([AEEA-C20 diacid])CNTATCATQRLANFLRHSSPNFGAIPSSTNVGHNTY-NH2 (disulfide 2-7; N-terminus assumed; SMILES CC[C@H](C)[C@H](NC(=O)[C@H](C)NC(=O)CNC(=O)[C@H](Cc1ccccc1)NC(=O)[C@H](CC(N)=O)NC(=O)[C@@H]1CCCN1C(=O)[C@H](CO)NC(=O)[C@H](CO)NC(=O)[C@H](Cc1c[nH]cn1)NC(=O)[C@H](CCCNC(=N)N)NC(=O)[C@H](CC(C)C)NC(=O)[C@H](Cc1ccccc1)NC(=O)[C@H](CC(N)=O)NC(=O)[C@H](C)NC(=O)[C@H](CC(C)C)NC(=O)[C@H](CCCNC(=N)N)NC(=O)[C@H](CCC(N)=O)NC(=O)[C@@H](NC(=O)[C@H](C)NC(=O)[C@@H]1CSSC[C@H](NC(=O)[C@@H](N)CCCCNC(=O)COCCOCCNC(=O)CCCCCCCCCCCCCCCCCCC(=O)O)C(=O)N[C@@H](CC(N)=O)C(=O)N[C@@H]([C@@H](C)O)C(=O)N[C@@H](C)C(=O)N[C@@H]([C@@H](C)O)C(=O)N1)[C@@H](C)O)C(=O)N1CCC[C@H]1C(=O)N[C@@H](CO)C(=O)N[C@@H](CO)C(=O)N[C@H](C(=O)N[C@@H](CC(N)=O)C(=O)N[C@H](C(=O)NCC(=O)N[C@@H](Cc1c[nH]cn1)C(=O)N[C@@H](CC(N)=O)C(=O)N[C@H](C(=O)N[C@@H](Cc1ccc(O)cc1)C(N)=O)[C@@H](C)O)C(C)C)[C@@H](C)O, also called compound 91) [N^ε1-[2-[2-[2-(19-carboxynonadecanoylamino)ethoxy]ethoxy]acetyl]-[Arg17,Pro21,Pro27,His34]-h-amylin]
7 | 104 | 58.9 | K([AEEA-AEEA-γGlu-C20 diacid])CNTATCATQRLANFLRHSSPNFGAIPSSTNVGHNTY-NH2 (disulfide 2-7; N-terminus assumed; SMILES CC[C@H](C)[C@H](NC(=O)[C@H](C)NC(=O)CNC(=O)[C@H](Cc1ccccc1)NC(=O)[C@H](CC(N)=O)NC(=O)[C@@H]1CCCN1C(=O)[C@H](CO)NC(=O)[C@H](CO)NC(=O)[C@H](Cc1c[nH]cn1)NC(=O)[C@H](CCCNC(=N)N)NC(=O)[C@H](CC(C)C)NC(=O)[C@H](Cc1ccccc1)NC(=O)[C@H](CC(N)=O)NC(=O)[C@H](C)NC(=O)[C@H](CC(C)C)NC(=O)[C@H](CCCNC(=N)N)NC(=O)[C@H](CCC(N)=O)NC(=O)[C@@H](NC(=O)[C@H](C)NC(=O)[C@@H]1CSSC[C@H](NC(=O)[C@@H](N)CCCCNC(=O)COCCOCCNC(=O)COCCOCCNC(=O)CC[C@H](NC(=O)CCCCCCCCCCCCCCCCCCC(=O)O)C(=O)O)C(=O)N[C@@H](CC(N)=O)C(=O)N[C@@H]([C@@H](C)O)C(=O)N[C@@H](C)C(=O)N[C@@H]([C@@H](C)O)C(=O)N1)[C@@H](C)O)C(=O)N1CCC[C@H]1C(=O)N[C@@H](CO)C(=O)N[C@@H](CO)C(=O)N[C@H](C(=O)N[C@@H](CC(N)=O)C(=O)N[C@H](C(=O)NCC(=O)N[C@@H](Cc1c[nH]cn1)C(=O)N[C@@H](CC(N)=O)C(=O)N[C@H](C(=O)N[C@@H](Cc1ccc(O)cc1)C(N)=O)[C@@H](C)O)C(C)C)[C@@H](C)O, also called compound 97)
